According to paper PMC4402148:

Target: DDX3X D1 WT (Homo sapiens, UniProt O00571 135-407)
Experiment: NMR CSP

Chain of DDX3X D1 WT (O00571 135-407): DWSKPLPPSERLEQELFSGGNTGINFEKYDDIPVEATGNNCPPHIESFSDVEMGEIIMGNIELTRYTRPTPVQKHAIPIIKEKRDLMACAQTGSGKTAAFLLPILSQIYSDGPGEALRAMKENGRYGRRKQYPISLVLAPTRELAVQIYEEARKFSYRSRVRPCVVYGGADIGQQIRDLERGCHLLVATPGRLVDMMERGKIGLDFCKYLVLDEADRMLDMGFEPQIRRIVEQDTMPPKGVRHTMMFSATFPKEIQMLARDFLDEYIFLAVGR

B1: blunt 14-mer dsRNA (NMR) (dsRNA)
RNA 1: GGGCGGGCCCGCCC
RNA 2: GGGCGGGCCCGCCC
Does B1 bind?
Result: binds
